Results as given in publication PMC9361535.

How the values were obtained:
Assay in all cases: GFP-Trap pulldown, quantitative mass spectrometry (iBAQ)
HSPA6/7 = settings: cytoplasmic fraction of HeLa cells; read off a plot
MSRB3 = settings: cytoplasmic fraction of HeLa cells; read off a plot
PHLDA2 = settings: cytoplasmic fraction of HeLa cells; read off a plot
SPRYD3 = settings: cytoplasmic fraction of HeLa cells; read off a plot
DNAJA1 = settings: cytoplasmic fraction of HeLa cells; read off a plot
DPY30 = DPY30 (UniProt Q9C005); settings: nuclear extracts of HeLa cells; read off a plot
Sequence of DPY30 (Q9C005 whole entry): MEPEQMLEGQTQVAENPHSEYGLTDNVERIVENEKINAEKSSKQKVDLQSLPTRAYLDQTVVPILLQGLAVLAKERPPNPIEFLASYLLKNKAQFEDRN

KMT2A = KMT2A (UniProt Q03164); settings: nuclear extracts of HeLa cells, read off a plot
Sequence of KMT2A (Q03164 whole entry): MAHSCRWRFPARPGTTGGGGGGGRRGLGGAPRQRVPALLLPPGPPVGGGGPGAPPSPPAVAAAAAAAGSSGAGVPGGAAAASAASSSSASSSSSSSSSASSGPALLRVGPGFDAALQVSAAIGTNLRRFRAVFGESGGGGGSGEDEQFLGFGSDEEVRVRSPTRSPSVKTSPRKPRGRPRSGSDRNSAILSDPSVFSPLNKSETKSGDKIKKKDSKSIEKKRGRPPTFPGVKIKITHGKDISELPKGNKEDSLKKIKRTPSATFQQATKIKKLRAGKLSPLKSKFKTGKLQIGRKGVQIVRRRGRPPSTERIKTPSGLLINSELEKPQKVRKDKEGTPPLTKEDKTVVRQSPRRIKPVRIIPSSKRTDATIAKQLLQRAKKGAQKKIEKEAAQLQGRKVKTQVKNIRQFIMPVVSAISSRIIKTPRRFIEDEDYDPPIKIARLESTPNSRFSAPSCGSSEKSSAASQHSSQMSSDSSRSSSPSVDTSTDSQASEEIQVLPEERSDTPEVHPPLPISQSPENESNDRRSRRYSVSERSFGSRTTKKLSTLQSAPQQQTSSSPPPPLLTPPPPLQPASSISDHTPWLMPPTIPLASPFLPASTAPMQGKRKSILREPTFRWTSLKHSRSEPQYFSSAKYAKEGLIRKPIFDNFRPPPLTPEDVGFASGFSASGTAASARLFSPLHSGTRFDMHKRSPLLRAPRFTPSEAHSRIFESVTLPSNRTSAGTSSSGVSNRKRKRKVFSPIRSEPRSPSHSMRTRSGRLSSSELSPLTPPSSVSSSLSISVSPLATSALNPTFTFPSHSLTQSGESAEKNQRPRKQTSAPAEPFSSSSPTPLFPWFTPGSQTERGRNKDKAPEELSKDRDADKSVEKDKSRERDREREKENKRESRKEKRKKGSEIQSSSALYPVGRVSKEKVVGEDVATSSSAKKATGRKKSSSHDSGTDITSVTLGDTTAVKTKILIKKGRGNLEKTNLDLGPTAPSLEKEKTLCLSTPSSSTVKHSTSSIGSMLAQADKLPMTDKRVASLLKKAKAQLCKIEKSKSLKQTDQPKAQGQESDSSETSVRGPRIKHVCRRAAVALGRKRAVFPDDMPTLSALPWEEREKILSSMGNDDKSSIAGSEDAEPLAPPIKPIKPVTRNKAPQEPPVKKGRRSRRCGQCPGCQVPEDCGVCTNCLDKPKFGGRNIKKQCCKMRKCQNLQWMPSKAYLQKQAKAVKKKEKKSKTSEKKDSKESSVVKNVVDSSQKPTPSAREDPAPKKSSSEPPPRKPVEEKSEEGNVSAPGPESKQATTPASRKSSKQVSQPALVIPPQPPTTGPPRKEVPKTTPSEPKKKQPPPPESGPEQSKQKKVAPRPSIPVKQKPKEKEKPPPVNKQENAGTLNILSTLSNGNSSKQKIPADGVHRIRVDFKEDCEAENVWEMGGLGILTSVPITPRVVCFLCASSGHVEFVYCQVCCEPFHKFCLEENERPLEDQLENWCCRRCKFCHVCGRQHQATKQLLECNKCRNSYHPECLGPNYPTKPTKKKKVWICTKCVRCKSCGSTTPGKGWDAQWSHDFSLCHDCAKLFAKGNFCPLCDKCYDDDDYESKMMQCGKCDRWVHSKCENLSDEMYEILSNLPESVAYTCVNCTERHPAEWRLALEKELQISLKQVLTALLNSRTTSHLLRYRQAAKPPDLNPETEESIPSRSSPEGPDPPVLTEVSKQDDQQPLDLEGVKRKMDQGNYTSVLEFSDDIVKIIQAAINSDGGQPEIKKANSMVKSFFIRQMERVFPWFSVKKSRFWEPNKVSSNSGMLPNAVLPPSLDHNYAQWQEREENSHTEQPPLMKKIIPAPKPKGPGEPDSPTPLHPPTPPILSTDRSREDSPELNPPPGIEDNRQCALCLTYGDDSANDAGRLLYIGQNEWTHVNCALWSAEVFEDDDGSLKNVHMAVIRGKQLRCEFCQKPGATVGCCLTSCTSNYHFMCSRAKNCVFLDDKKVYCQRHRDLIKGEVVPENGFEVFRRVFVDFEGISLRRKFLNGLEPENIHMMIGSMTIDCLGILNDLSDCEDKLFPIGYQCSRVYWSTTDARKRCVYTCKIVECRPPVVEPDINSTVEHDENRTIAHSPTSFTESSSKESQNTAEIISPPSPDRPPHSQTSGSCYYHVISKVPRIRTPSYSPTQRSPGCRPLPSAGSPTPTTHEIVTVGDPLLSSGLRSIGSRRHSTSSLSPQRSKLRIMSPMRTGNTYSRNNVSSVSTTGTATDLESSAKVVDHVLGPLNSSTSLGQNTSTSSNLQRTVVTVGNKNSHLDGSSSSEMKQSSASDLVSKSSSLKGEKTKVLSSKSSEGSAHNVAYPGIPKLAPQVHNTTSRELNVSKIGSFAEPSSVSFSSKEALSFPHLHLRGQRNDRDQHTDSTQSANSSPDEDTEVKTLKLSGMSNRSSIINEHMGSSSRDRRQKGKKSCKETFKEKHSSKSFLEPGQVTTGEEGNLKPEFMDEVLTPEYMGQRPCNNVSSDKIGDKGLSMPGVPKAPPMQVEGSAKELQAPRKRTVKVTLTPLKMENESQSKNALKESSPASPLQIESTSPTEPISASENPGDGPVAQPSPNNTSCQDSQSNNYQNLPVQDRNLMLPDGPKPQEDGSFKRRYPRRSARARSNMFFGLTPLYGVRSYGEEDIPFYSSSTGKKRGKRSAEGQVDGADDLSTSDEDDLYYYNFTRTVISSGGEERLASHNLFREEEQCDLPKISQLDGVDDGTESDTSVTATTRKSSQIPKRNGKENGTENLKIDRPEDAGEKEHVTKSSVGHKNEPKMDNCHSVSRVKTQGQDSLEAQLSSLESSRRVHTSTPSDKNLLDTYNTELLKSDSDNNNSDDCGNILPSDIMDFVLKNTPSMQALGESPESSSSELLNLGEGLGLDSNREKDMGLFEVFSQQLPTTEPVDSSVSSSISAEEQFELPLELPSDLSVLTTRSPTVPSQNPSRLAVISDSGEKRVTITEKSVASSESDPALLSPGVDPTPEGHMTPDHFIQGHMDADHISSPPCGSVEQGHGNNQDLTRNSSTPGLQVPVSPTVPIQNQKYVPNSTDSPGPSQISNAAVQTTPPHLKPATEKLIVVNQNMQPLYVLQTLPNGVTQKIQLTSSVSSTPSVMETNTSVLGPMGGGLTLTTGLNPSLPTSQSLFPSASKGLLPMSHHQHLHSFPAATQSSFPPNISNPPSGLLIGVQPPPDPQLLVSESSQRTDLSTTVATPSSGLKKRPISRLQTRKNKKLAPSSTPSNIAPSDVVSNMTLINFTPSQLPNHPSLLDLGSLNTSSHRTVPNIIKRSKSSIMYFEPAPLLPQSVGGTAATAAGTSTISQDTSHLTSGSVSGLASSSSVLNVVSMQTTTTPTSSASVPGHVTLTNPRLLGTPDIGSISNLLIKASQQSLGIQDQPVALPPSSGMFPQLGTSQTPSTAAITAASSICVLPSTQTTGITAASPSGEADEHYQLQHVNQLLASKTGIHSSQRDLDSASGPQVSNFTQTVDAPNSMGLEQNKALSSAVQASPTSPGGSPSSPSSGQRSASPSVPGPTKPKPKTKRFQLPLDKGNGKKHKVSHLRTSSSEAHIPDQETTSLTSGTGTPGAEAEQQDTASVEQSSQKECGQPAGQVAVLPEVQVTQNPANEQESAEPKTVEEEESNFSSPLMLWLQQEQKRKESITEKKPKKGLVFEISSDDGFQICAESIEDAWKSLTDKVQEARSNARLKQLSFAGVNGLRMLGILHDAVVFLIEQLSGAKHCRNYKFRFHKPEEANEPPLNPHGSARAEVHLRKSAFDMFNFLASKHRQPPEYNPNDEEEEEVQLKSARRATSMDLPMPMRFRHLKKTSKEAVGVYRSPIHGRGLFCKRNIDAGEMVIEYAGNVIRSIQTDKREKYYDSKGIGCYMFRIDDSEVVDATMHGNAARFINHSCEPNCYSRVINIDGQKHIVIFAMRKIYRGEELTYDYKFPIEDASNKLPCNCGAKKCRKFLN

JunD = JunD (UniProt P17535); settings: nuclear extracts of HeLa cells, read off a plot
Sequence of JunD (P17535 whole entry): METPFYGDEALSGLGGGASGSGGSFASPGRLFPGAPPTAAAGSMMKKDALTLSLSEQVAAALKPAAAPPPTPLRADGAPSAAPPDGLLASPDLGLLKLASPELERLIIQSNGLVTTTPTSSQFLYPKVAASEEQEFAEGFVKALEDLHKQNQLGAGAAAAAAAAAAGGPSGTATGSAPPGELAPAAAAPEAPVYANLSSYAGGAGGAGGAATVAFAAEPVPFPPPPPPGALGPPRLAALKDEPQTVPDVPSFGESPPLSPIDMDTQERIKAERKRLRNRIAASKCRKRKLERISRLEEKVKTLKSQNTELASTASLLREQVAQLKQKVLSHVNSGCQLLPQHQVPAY

HCFC2 = HCFC2 (UniProt Q9Y5Z7); settings: nuclear extracts of HeLa cells; read off a plot
WDR5 = WDR5 (UniProt P61964); settings: nuclear extracts of HeLa cells; read off a plot
HSPA8 = HSPA8 (UniProt P11142); settings: cytoplasmic fraction of HeLa cells; read off a plot
KMT2B = KMT2B (UniProt Q9UMN6); settings: nuclear extracts of HeLa cells; read off a plot
ASH2L = ASH2L (UniProt Q9UBL3); settings: nuclear extracts of HeLa cells; read off a plot
PSIP1 = PSIP1 (UniProt O75475); settings: nuclear extracts of HeLa cells; read off a plot
Sequence of PSIP1 (O75475 whole entry): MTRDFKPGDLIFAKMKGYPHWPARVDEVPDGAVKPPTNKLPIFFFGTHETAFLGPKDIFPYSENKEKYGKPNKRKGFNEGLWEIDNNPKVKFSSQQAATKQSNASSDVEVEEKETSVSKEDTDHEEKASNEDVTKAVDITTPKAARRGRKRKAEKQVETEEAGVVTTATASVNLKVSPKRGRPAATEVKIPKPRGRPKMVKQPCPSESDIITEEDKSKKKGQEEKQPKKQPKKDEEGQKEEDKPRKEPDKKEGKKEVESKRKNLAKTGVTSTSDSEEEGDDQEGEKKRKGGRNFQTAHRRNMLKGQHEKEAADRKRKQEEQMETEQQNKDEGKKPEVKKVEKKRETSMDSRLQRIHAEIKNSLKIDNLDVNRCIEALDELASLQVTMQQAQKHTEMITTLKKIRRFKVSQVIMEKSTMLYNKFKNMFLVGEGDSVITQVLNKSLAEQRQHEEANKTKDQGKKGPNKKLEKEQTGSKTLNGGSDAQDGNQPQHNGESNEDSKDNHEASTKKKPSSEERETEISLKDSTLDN

ubiquitin = ubiquitin (UniProt P62979); settings: cytoplasmic fraction of HeLa cells; read off a plot
RBBP5 = RBBP5 (UniProt Q15291); settings: nuclear extracts of HeLa cells; read off a plot
CBS = settings: cytoplasmic fraction of HeLa cells; read off a plot

An other: stoichiometry (HSPA6/7) of 0.11 was found for “WT menin-GFP (from UniProt O00255-2) L264P” in this work.

An other: stoichiometry (MSRB3) of 0.055 and an other: stoichiometry (PHLDA2) of 0.06 were found for “WT menin-GFP (from UniProt O00255-2) E366D” in this work.

An other: stoichiometry (MSRB3) of 0.055 and an other: stoichiometry (HSPA6/7) of 0.04 were found for “WT menin-GFP (from UniProt O00255-2) Q141R” in this work.

An other: stoichiometry (SPRYD3) of 0.04, an other: stoichiometry (DNAJA1) of 0.045 and an other: stoichiometry (HSPA6/7) of 0.075 were found for “WT menin-GFP (from UniProt O00255-2) L168P” in this work.

An other: stoichiometry (MSRB3) of 0.05 and an other: stoichiometry (PHLDA2) of 0.09 were found for “WT menin-GFP (from UniProt O00255-2) R52G” in this work.

An other: stoichiometry (DPY30) of 0.23, a ratio to parent (KMT2A; parent: est. 1.0) of 0.8 and an other: stoichiometry (KMT2A) of 0.028 were found for “WT menin-GFP (from UniProt O00255-2) R322H” in this work. For the same substance, the ratio to parent (JunD; parent: est. 1.0) was 0.53, the other: stoichiometry (JunD) was 0.053 and the other: stoichiometry (HCFC2) was 0.014. It also gave an other: stoichiometry (WDR5) of 0.046, an other: stoichiometry (HSPA8) of 0.26 and an other: stoichiometry (MSRB3) of 0.045. The other: stoichiometry (KMT2B) was 0.068, the other: stoichiometry (ASH2L) was 0.06 and the other: stoichiometry (PSIP1) was 0.014. For the same substance, the other: stoichiometry (ubiquitin) was 0.35, the other: stoichiometry (PHLDA2) was 0.045 and the other: stoichiometry (RBBP5) was 0.076.

An other: stoichiometry (MSRB3) of 0.22 was found for “WT menin-GFP (from UniProt O00255-2) E359K” in this work.

An other: stoichiometry (MSRB3) of 0.095, an other: stoichiometry (PHLDA2) of 0.12 and an other: stoichiometry (CBS) of 0.055 were found for “WT menin-GFP (from UniProt O00255-2) E408Q” in this work.
